Here are results for 132 substances from the supplement of paper PMC12042874.

± gives the uncertainty stated by the source.

The nature of the series: amyloid nucleation score (Sup35N fusion, yeast selection) (log enrichment); library NNK3; higher = more nucleation; inactive = no reads after selection. In short, it runs like this: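 The nucleation score is the log enrichment of output over input reads, calculated with DiMSum and centred on the mode score of non-aggregating sequences. Sequences with under 100 input reads were excluded. Reads came from Illumina sequencing of plasmid inserts from psi-negative yeast expressing Sup35N fused to peptides of 20 random codons, induced 24 hours with 100 μM copper sulfate and grown 7 days at 30°C without adenine and uracil.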
RNATIALCAGWVIYDSVFKG registered an amyloid nucleation score of 2.27 ± 0.073.

Consider FAYVLFATFS, for which the amyloid nucleation score was -0.353 ± 1.2.

Regarding SAYKKASVWGLRLQSSRS, the amyloid nucleation score entry is “inactive”.

On to KGSTLLSNIARMVVTCKARP, for which the amyloid nucleation score result was “inactive”.

The substance LIISLGTVVIDVQSKKSLLL came in with an amyloid nucleation score of 2.29 ± 0.079.

Consider LSVNYKLGQYRTLWFHHSLG, for which the amyloid nucleation score entry was “inactive”.

The substance MRHVCSCFRNDHGIDGVF came in with an amyloid nucleation score of 0.06 ± 0.44.

For the substance YIHIY, the amyloid nucleation score result is “inactive”.

LGNRQVRNLATYPDNYLTCT: the amyloid nucleation score entry was “inactive”.

As to LVCDHGSCVKMVIMTDFMSS, the amyloid nucleation score result is “inactive”.

As for DGFLKLEFAFQCFTRLCLAF, the amyloid nucleation score result was “inactive”.

Regarding TNYWNHVVYVTGNVCDP, the amyloid nucleation score entry is “inactive”.

For YRWGISLIEMEQGGVVF, the amyloid nucleation score entry was “inactive”.

Regarding CSLTRFRWGYRTFEDNAPFH, the amyloid nucleation score was determined as 1.57 ± 0.075.

Turning to PLAGLELCMRRRWVEE, the amyloid nucleation score entry was “inactive”.

Turning to ADTTCHFACKPKLDFLRKTT, the amyloid nucleation score entry is “inactive”.

ECRYRTRR: the amyloid nucleation score result was “inactive”.

In turn, ILLFYLSLKRCSLQARGLDS yielded an amyloid nucleation score of -0.659 ± 1.8.

Turning to ITHFIMCPYYDYQRDGHWIT, the amyloid nucleation score entry is “inactive”.

For the substance RRWCLVAIIPIELNAGTEQH, the amyloid nucleation score result was “inactive”.

On to IYRSIRQAVLCLGLSGS, for which the amyloid nucleation score result was “inactive”.

Take SCVWFSL: the amyloid nucleation score result was “inactive”.

For the substance YYYAFEFPFSYHERSALYYC, the amyloid nucleation score entry was “inactive”.

SLDLNCQIMLYKSMRCDEE had an amyloid nucleation score of 1.61 ± 0.064.

Regarding TPRFMVGAVATEGAHIFLRV, the amyloid nucleation score result was “inactive”.

Regarding EFVFECLYGTLLGRALMLRP, the amyloid nucleation score entry is “inactive”.

On to TIPYFQYDVFHKEDNWTGML, for which the amyloid nucleation score result is “inactive”.

As for RSCGVFHQRARVHCCIKSLP, the amyloid nucleation score result was “inactive”.

For the substance VSQYSVLGVAWSELFRTVD, the amyloid nucleation score was -0.064 ± 0.26.

For the substance VSINRRLFCLLGDDFTS, the amyloid nucleation score entry was “inactive”.

Take DLYQPDS: the amyloid nucleation score entry was “inactive”.

Take SDRFHVAHNNFLMRGKGFRT: the amyloid nucleation score result is “inactive”.

On to AENLVWRVMAYSARSTADYG, for which the amyloid nucleation score entry was “inactive”.

With WHCLTVFILKYEVGFCSSLR, the amyloid nucleation score result was “inactive”.

With TFMPIGLNL, the amyloid nucleation score entry is “inactive”.

For the substance DCGVVCSRNRNAEEEMLDSV, the amyloid nucleation score result was “inactive”.

As to YGVESAYKCRNVYFLYWCML, the amyloid nucleation score worked out at 0.511 ± 0.13.

As to VGQCFNELVRFNRSGISRLV, the amyloid nucleation score result is “inactive”.

On to LFYIPFCMSFWTSKDRNA, for which the amyloid nucleation score result is “inactive”.

Consider LWRDSGTITDGFECFSME, for which the amyloid nucleation score entry is “inactive”.

For the substance LIRGK, the amyloid nucleation score result was “inactive”.

With GGKLKRCVYG, the amyloid nucleation score entry is “inactive”.

Regarding RRVNFVNYSLWV, the amyloid nucleation score is 1.6 ± 0.1.

Turning to YYSWCRFTNDYSCCYRAFFA, the amyloid nucleation score result is “inactive”.

On to NLVNFYYLVRAFDCELLFRG, for which the amyloid nucleation score entry is “inactive”.

Consider TMAYGAPLPHSTSYYITIMS, for which the amyloid nucleation score entry is “inactive”.

With HDVDLGWFSRYGIFRALRRE, the amyloid nucleation score result is “inactive”.

Substance PRCMYRLVFICGPGFRCSAG came in with an amyloid nucleation score of -0.07 ± 0.47.

FQVYFLSVYACRCLMARLGS: the amyloid nucleation score entry was “inactive”.

In the case of ESQISEN, the amyloid nucleation score result was “inactive”.

As for CYNAKCHFIGYDVAGNSGVW, the amyloid nucleation score result is “inactive”.

RKVKILWNDTLTFRT: the amyloid nucleation score entry is “inactive”.

FFLNLKDMFDHAL: the amyloid nucleation score entry was “inactive”.

In the case of VWMIPISCKSQFLFEWYGHY, the amyloid nucleation score came to 1.12 ± 0.18.

The substance NSHWWCSGFVSVVKIVAEFG had an amyloid nucleation score of 1.23 ± 0.1.

For FKIEDQYNLMHRVFLVSNGG, the amyloid nucleation score entry was “inactive”.

Regarding SRQGVNQKRTVCWS, the amyloid nucleation score entry is “inactive”.

As to VGELIGLGSLWGMEINY, the amyloid nucleation score entry is “inactive”.

Regarding VYVRG, the amyloid nucleation score entry was “inactive”.

As to IYRLDSSTSCICHCFLILVF, the amyloid nucleation score result was “inactive”.

In the case of DADYLT, the amyloid nucleation score entry is “inactive”.

NRAVQRFCCDFNAPHIPFR: the amyloid nucleation score entry was “inactive”.

For the substance FVSDRSSGYTGMLIKDAL, the amyloid nucleation score result was “inactive”.

In the case of CLIFDLSRKKYWVKRDRKAW, the amyloid nucleation score was 1.91 ± 0.062.

As for CFQDRQKLF, the amyloid nucleation score result was “inactive”.

Regarding FGAAFQNYVKFPVPKMFTCH, the amyloid nucleation score entry is “inactive”.

Turning to RKVGRLIPFHFCSN, the amyloid nucleation score entry was “inactive”.

Turning to IFVNSTVLFLMHVCCLSVIS, the amyloid nucleation score worked out at 2.12 ± 0.068.

Consider STVELWQELFAFNTRGGSNG, for which the amyloid nucleation score result was “inactive”.

TLCQREPG had an amyloid nucleation score of 0.209 ± 0.71.

Turning to MSDEDRYNRWFDTGVGVLDR, the amyloid nucleation score entry was “inactive”.

As to PSFMLVVIKVTYVMADSNMR, the amyloid nucleation score result is “inactive”.

In turn, RTTVVYTLNLSGTNRRPCYN returned an amyloid nucleation score of 1.66 ± 0.084.

Consider LHCTLSNSLSYLHDIQQLLH, for which the amyloid nucleation score entry was “inactive”.

With EVVLFKYVVL, the amyloid nucleation score amounted to 0.848 ± 0.19.

As to QYDLDWFIGRSNARDGLTDW, the amyloid nucleation score result is “inactive”.

Regarding RSLHWNLGLCIWYNEFRDLM, the amyloid nucleation score came to 1.8 ± 0.074.

In the case of FGSPYWLAYIV, the amyloid nucleation score entry was “inactive”.

Turning to CKHYVGLYKLTVWRFCGKNT, the amyloid nucleation score entry was “inactive”.

SYAPKMSIRGMNFKTVMVFL showed an amyloid nucleation score of 2.37 ± 0.076.

As for KSREWLLSYFCYGW, the amyloid nucleation score result is “inactive”.

PVAVLDG: the amyloid nucleation score came to 0.654 ± 0.18.

As to FWEYVRKLIEYEYLGSR, the amyloid nucleation score result was “inactive”.

As to GHFGVLMSGSTGGNLANQSG, the amyloid nucleation score entry was “inactive”.

For SLKSPLRCFLILHSPALCLG, the amyloid nucleation score result was “inactive”.

In the case of AHVLVSFCFSFTRSVKFGLV, the amyloid nucleation score result was “inactive”.

As for MSWLKQGLTDR, the amyloid nucleation score result is “inactive”.

In the case of GIGILEVWVSVRYGSWFKRI, the amyloid nucleation score result is “inactive”.

For the substance WYAKWKVN, the amyloid nucleation score entry is “inactive”.

LSLVDEFQSPLLQLLFVQVA: the amyloid nucleation score entry was “inactive”.

ILRYVLAHSVLKTCLMQGLA: the amyloid nucleation score result is “inactive”.

For the substance ELIWAEGYRKSCKLGPVIS, the amyloid nucleation score result is “inactive”.

For the substance MSFGKSCEVKGGL, the amyloid nucleation score result is “inactive”.

With VLFKYTSRIMDCVKTLKPLK, the amyloid nucleation score result was “inactive”.

Turning to GHRRVVSLCYTYMRWI, the amyloid nucleation score entry was “inactive”.

With LDAYDSLLFL, the amyloid nucleation score entry is “inactive”.

As for CGSRLYRCETAMMVLRIRSG, the amyloid nucleation score result was “inactive”.

Regarding IDFIVLSSL, the amyloid nucleation score result is “inactive”.

Regarding DALVYVLGSCMWIGASSTSA, the amyloid nucleation score was -0.354 ± 1.1.

As for TEVFVHFTCEIGYIFLILFQ, the amyloid nucleation score result was “inactive”.

On to PWSLWRTVKSPRKGGEQPRS, for which the amyloid nucleation score is -0.317 ± 1.1.

Take FIWTFK: the amyloid nucleation score was determined as 1.35 ± 0.092.

As to LNSLLY, the amyloid nucleation score entry was “inactive”.

As for QYFRLLTLISRPFKTHRGVG, the amyloid nucleation score entry is “inactive”.

Consider GSSYGVIIVQYYP, for which the amyloid nucleation score came out at 2.02 ± 0.076.

Take GDMFDWFSGELVFRMRNILC: the amyloid nucleation score is -0.917 ± 1.1.

The substance DSPMKLSALSHM registered an amyloid nucleation score of -0.261 ± 0.96.

On to YNDWQKEMCIITICVL, for which the amyloid nucleation score entry was “inactive”.

Turning to VRLSVMG, the amyloid nucleation score entry is “inactive”.

NHCNTCSWFLQTS showed an amyloid nucleation score of 1.45 ± 0.14.

AWKLKFFVFNSLSVIT: the amyloid nucleation score result is “inactive”.

For SIYKE, the amyloid nucleation score entry was “inactive”.

In the case of FYSSSL, the amyloid nucleation score entry is “inactive”.

As for SVPDCELVAYKSSLWCTHLT, the amyloid nucleation score result is “inactive”.

Turning to SRTLIIIVYFTTNIIVLEFY, the amyloid nucleation score entry is “inactive”.

For ANTFVSSWFVTTNRQKTERG, the amyloid nucleation score entry was “inactive”.

TALGSDMTYITARRI gave an amyloid nucleation score of 0.671 ± 0.15.

Take LFVRVCSANYFSWEYDSRVN: the amyloid nucleation score result is “inactive”.

In the case of YLAPHMSATVVLDNEFGPES, the amyloid nucleation score entry was “inactive”.

WWMYSALGMYTDHEFACDVA: the amyloid nucleation score result is “inactive”.

With DHVGCATNRSDVDVTVFV, the amyloid nucleation score entry was “inactive”.

Consider FKVAH, for which the amyloid nucleation score result is “inactive”.

On to QRKVSWHAGYSA, for which the amyloid nucleation score entry was “inactive”.

Turning to YFAWNRKVNYTRS, the amyloid nucleation score result was “inactive”.

Take VYEGFQVWNDGLPDLVRFGV: the amyloid nucleation score result is “inactive”.

As for DISIPVLKRSFTCSMAYHC, the amyloid nucleation score entry is “inactive”.

Regarding CKPDLMA, the amyloid nucleation score entry was “inactive”.

Take SPFLKTTVAGLGSPRELSIR: the amyloid nucleation score entry was “inactive”.

Regarding HITLKSYARIV, the amyloid nucleation score result is “inactive”.

Regarding PGIQYPSCRKLVIIYMSCL, the amyloid nucleation score result is “inactive”.

With FCGAYLVVIAEFL, the amyloid nucleation score result is “inactive”.

Regarding EFRIKRNR, the amyloid nucleation score result is “inactive”.
